Test results from PMC4661386.

Molecular target: inter-alpha-inhibitor (IαI) (human) (UniProt P19827)
Sequence (P19827 whole entry, looked up): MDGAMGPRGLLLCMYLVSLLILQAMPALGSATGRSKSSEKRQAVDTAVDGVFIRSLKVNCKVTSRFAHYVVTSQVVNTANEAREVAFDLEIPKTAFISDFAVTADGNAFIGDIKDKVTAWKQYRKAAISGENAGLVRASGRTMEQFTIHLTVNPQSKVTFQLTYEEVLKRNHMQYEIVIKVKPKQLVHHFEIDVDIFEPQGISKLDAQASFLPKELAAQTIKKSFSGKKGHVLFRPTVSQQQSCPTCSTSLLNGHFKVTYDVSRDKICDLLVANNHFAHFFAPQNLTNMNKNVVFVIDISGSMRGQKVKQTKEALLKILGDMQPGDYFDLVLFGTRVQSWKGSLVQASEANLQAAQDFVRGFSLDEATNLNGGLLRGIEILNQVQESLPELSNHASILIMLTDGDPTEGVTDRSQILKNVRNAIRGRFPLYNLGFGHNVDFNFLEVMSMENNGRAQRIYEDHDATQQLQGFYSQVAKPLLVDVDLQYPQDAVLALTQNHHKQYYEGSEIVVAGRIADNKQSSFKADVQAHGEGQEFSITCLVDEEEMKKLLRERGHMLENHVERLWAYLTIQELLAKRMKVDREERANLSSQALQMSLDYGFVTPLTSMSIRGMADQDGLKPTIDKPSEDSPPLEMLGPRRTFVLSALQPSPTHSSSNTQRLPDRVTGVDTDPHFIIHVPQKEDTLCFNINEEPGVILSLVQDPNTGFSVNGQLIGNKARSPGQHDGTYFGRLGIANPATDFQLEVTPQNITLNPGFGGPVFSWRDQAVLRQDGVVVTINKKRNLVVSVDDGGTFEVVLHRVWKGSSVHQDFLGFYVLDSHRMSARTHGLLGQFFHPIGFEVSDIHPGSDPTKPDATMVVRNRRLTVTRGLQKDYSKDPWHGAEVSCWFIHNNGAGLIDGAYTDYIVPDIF

amount of HC·TSG-6 product with added calcium ions (SDS-PAGE band intensity): 5 % of WT
Substance: Full-length human TSG-6 (rhTSG-6) E183S mutant (from UniProt P98066 18-277) (natural protein)
